The record followed here is patent publication US20030013169, “Transcription factor E2F DNA-binding domain inhibitor peptides and their use” (published 2003).

This data set concerns the target E2F1/DP1 heterodimer (Homo sapiens, UniProt Q01094;Q14186 Q01094:64-301,Q14186:85-249). Put plainly: EMSA; binding inhibited by peptides SEQ 2, 4, 5 with IC50 50-100 uM; about 100-fold lower for MAP-branched SEQ 2; room temperature. The following applies: tags: His-E2F1 (pET28b); GST-DP1; label: 32P fill-in. Here is the method:
Purified E2F1 N1-His (64-301) and DP1 N2-GST (84-249) were incubated at 10 μg/ml in a buffer containing 10 mM HEPES, […], 1 mM EDTA, […], 33 mg/ml BSA and 0.1 μg of sonicated salmon sperm for 10 minutes on ice. ³²P-labelled probe was added and the reaction mixture was incubated at room temperature for 20 minutes. Probes were labelled by filling-in 5′ overhanging ends of 4-7 bases. Samples were run on 4% non denaturing polyacrylamide gel in 0.5% TBE at 4° C. Gels were exposed to X-ray films. Nuclear extract (3 μg) was incubated in 17 μl buffer containing 0.3 M NaCl, 0.4 M Tris pH 7.9, 100 mM EDTA, 0.4 M DTT, 13% glycerol, 1 μg of sonicated salmon sperm on ice. The samples were then incubated for 10 minutes at 30° C. and cooled on ice. ³²P-labelled probe was added, the reaction mixtures were incubated for another 10 minutes at 30° C. and then cooled on ice.
The inhibitory potential of the peptides on E2F function was analysed in band shift assays with recombinant E2F1 and DP1. […] The IC₅₀ concentrations for the 3 peptides were in the range of 50-100 μM. Inhibition to various extends was also observed using recombinant fragments of E2F2, E2F3, E2F4, E2F5, respectively. Approximately 100-fold lower IC50 values were found with a branched molecule consisting of 4 copies of SEQ ID NO:2 linked by MAP (multiple antigen peptide).
(In general: A gel shift assay detects complexes by their altered migration in electrophoresis.)

Chain of E2F1/DP1 heterodimer (Q01094 64-301, chain 1 of 2): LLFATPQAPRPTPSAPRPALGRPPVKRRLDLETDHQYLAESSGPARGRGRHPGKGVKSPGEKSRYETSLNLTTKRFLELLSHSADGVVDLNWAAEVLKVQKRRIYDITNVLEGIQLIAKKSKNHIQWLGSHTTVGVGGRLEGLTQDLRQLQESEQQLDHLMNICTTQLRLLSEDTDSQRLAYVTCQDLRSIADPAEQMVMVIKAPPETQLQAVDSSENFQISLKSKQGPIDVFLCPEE
Chain of E2F1/DP1 heterodimer (Q14186 85-249, chain 2 of 2): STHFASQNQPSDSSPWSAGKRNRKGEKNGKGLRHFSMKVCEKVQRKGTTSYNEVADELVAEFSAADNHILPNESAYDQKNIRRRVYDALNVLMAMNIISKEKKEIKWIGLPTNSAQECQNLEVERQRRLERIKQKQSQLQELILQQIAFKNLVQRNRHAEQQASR

B1: B-myb E2F probe (dsDNA)
DNA 1: CGACGCGCTTGGCGGGAGATAGAAAAGTGC
DNA 2: GCACTTTTCTATCTCCCGCCAAGCGCGTCG
As for B1, the binding result is recorded as “binds”.
